Measurements as given in the nanobody polyreactivity screen of Harvey et al. (2022).

Test: yeast display, Sf9 membrane polyspecificity reagent, FACS + sequencing; frameworks hold sequencing errors
Procedure, shortened: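 Nanobodies from a synthetic yeast display library (Saccharomyces cerevisiae BJ5465), induced 36–48 hours with galactose, were stained 1 hour at 4 °C with 10% biotinylated, detergent-solubilized Sf9 membrane reagent, enriched on streptavidin microbeads, then FACS-sorted. Anti-HA (expression) and streptavidin (reagent binding) fluorescence set low and high (top ~1%) gates. Polyreactivity labels come from the gate of origin. Genes were colony-PCR amplified, MiSeq 2 × 250 sequenced and filtered by CDR length.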

| Sequence | polyreactivity (PSR sort gate) |
| --- | --- |
| QVQLVESGGGLVQAGGSLRLSCAASGSIFWQNTMGWYRQAPGKERELVAAISWSGGRTYYADSVKGRFTISRDNAKNTVSLPMNSLKPEDTAVYYCNKLLSQRRYHSEMDYWGQGTQVTVSS | high polyreactivity |
| QVQLVESGGGLVQAGGSLRLSCAASGSIFWRNAMGWYRQAPGKERELVAAITSGGTTNYADSVKGRFTISRDNAKNTVYLQMNSLKPEDTAVYYCATGASYLRRYDHPHSDVDYWGQGTQVTVSS | low polyreactivity |
| QVQLVESGGGLVQAGGSLRLSCAASGSIFWSNAMGWYRQAAGKERELVASITRSGGSTYYADSVKGRFTISRDNAKNTVYLQMNSLKPEDTAVYYCAARTRGSSYHFDYWGQGTQVTVSS | high polyreactivity |
| QVQLVESGGGLVQAGGSLRLSCAASGSIFWSNAMGWYRQAPGKEREFVAAITWSGDNTYYADSVKGRFTISRDNAKNTVYLQMNSLKPEDTAVYYCNTEWGLFYDWTVLHIYLHGYYYWGQGTQVTVSS | low polyreactivity |
| QVQLVESGGGLVQAGGSLRLSCAASGSIFWSNSMGWDRQAPGKERELDAAISQDGGSTNYADSVKGRFTISRDNAKNTVYLQMTSQKPEDTAVYYCAVKYWSYEPPSYSIEYGYWGQGTQVTVSS | low polyreactivity |
| QVQLVESGGGLVQAGGSLRLSCAASGSIFWSYAMGWYRQAPGKEREFVAAIRGRGGNTYADSVKGRFTISRDNAKNTVYLQMNSLKPEDTAVYYCAAPLLRDLRSPYSYNYWGQGTQVTVSS | low polyreactivity |
| QVQLVESGGGLVQAGGSLRLSCAASGSIFWSYDMGWYRQAPGKERELVPTITSGDSTYYADSVKGRFTISRDNAKNTVYLQMNSLKPEDTAVYYCAAGTYYRRTYWHREYDYWGQGTQVTVSS | low polyreactivity |
| QVQLVESGGGLVQAGGSLRLSCAASGSIFWSYGMGWYIQAPGKERELVASTRYADSVKERFTISRDNAKNTVYLLMNSLKPEDTAVYYCAADVWTLDPDEYDYWGQGTQVTVSS | low polyreactivity |
| QVQLVESGGGLVQAGGSLRLSCAASGSIFWSYGMGWYRQAPGKERELVASTRYADSVKGRFTISRDNAKNTVYLQMNSLKPEDTAVYYCNVRYYGYRFGDDYWGQGTQVTVSS | low polyreactivity |
| QVQLVESGGGLVQAGGSLRLSCAASGSIFWTNAMGCYIQAPGKERELVAAITGGGTTYYADSVKGRFTISRDNAKNTVYLQMNSLKPEDTAVVYTVSSAQYDYWGQGTQVTVSS | low polyreactivity |
| QVQLVESGGGLVQAGGSLRLSCAASGSIFWTYAMGWYRQAPGKERELVAAITTGGSTYYADSVKGRFTISRDNAKNTVYLQMNSLKPEDTAVYYCAVDHLTRSGDGEYWGQGTQVTVSS | high polyreactivity |
| QVQLVESGGGLVQAGGSLRLSCAASGSIFWWNAMGWYRQAPGKERELVGAITVSGSSTHYADSVKGRFTISRDNAKNTVYLQMNSMKPEDTAVYYWGQGTQVTVSS | low polyreactivity |
| QVQLVESGGGLVQAGGSLRLSCAASGSIFWYNAMAWYRQAPGKERELVAAITGTGDRTYYADSVKGRFTISRDNAKNSVYLQMNSLKPEDSAVYYCAAAYGAYYPWGYDYWGQGTQVTVSS | low polyreactivity |
| QVQLVESGGGLVQAGGSLRLSCAASGSIFWYNAMGWYRQAPGKEREFVATITNGTTTNYADSVKGRFTISCDNAKNTVYLQMNSLKPEDTAVYFCAVTGVYVKYDYWGQGTHVTVSS | low polyreactivity |
| QVQLVESGGGLVQAGGSLRLSCAASGSIFWYYAMGWYRQAPGKERELVAAISSGGSTNYADSVKGRFTISRDNAKNTVYLQMNSLKPEDTAVYYCAAGYAVSWYSAYDSGYWGQCTQVTVSS | low polyreactivity |
| QVQLVESGGGLVQAGGSLRLSCAASGSIFWYYAMGWYRQAPGKERELVAAISTSGTSTYYADSVKGRFTISRDNAKNTVYLQMNSLKPEDSAVYYCAKRSGARHRLMDYWGQGTQVTVSS | low polyreactivity |
| QVQLVESGGGLVQAGGSLRLSCAASGSIFWYYVMGWYRQAPGKERELVAAITISGAGTYYADSVKGRFTISRDNAKNTVYLQMNSLKPEDTAVYYCAARLLGHFYPFFLQGLSGFDYWGQGTQVTVSS | low polyreactivity |
